Measurements: US20090117169A1

Legend:
Assay in all cases: cell-based or functional assay
Myc-tagged β-catenin = biological target: Myc-tagged β-catenin
[1] = biological target: endogenous β-catenin in rat vascular smooth muscle cells (RASMCs, A7r5) (rat) (UniProt Q9WU82)
[2] = biological target: endogenous β-catenin in mouse aortic smooth muscle cells (MASMCs) (mouse) (UniProt Q02248)

UniProt Q9WU82, sequence (Q9WU82 2-781): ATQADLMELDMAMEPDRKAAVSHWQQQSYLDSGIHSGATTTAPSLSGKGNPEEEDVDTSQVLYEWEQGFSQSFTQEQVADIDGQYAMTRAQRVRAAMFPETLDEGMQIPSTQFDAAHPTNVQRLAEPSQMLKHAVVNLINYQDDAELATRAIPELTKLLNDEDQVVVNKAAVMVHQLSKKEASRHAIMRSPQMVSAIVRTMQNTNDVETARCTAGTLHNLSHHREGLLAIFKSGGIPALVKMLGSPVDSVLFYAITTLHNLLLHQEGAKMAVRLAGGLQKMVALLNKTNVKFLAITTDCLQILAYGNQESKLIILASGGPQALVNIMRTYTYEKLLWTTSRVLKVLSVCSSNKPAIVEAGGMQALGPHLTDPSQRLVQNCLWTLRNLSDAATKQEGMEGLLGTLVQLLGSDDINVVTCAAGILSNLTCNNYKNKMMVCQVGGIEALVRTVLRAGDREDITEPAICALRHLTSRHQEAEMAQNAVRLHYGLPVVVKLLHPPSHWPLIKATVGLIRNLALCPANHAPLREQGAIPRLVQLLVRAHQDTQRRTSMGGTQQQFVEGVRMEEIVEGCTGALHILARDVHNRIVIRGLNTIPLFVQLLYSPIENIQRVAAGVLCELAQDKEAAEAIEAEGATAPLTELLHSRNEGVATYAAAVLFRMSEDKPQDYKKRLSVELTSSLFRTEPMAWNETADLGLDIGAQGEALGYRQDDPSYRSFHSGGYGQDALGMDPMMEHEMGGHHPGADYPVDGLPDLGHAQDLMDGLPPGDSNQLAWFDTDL

inhibition of β-catenin activation of Topflash (TCF-luciferase reporter) in A7r5 cells (Myc-tagged β-catenin) [%] | nuclear β-catenin/lamin A/C ratio in fractionated, LiCl-treated A7r5 cells [1] | LiCl-stimulated TCF/β-catenin transcriptional activation (Topflash) in MASMCs after Fat1 knockdown (% higher than control siRNA) [2] | Substance
55 | – | – | FLAG-tagged N-cadherin (receptor)
40 | 0.8 | – | IL2R-Fat1IC (from UniProt P01589 22-259)
– | – | 30 | endogenous Fat1 in mouse aortic smooth muscle cells (MASMCs)
